Each block holds one binder with its values, some of them ahead of it.
How the values were obtained:
[1] = target: T1, anti-IBP4 antibody clone variant 7D6.G4; assay: ECLIA, peptide competes with IBP4 for the antibody
T1 construct: Mouse monoclonal; variant form; also called IBP4 (7D6.G4) V2; IBP4-7D6.G4

[2] = target: T2, anti-IBP4 antibody clone variant 5B3.G9; assay: ECLIA, peptide competes with IBP4 for the antibody
T2 construct: Mouse monoclonal; variant form expressed in CHO cells; also called IBP4 (5B3.G9) V1; IBP4-5B3.G9
T2 sequence (heavy, as listed by the source, chain 1 of 2): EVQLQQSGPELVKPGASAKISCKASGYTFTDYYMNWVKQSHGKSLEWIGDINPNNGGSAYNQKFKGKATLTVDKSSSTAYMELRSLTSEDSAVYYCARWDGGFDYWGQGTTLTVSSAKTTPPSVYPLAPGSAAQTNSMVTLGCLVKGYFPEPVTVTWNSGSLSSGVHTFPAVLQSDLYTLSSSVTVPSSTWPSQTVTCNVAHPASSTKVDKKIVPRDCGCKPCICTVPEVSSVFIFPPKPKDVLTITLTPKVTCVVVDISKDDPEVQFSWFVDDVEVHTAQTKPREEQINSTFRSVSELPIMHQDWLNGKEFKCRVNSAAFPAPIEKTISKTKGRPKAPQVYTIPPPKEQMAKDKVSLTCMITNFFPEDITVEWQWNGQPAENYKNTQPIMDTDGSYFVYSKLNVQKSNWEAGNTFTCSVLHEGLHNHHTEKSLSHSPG
T2 sequence (light, as listed by the source, chain 2 of 2): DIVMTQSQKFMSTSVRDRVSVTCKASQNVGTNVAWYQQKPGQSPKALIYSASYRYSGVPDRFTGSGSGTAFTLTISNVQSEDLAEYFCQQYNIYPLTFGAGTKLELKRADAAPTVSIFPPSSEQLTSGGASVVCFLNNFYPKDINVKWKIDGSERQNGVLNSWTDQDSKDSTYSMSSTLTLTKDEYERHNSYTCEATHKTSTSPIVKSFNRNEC

[3] = target: T3, human insulin-like growth factor binding protein 4 (IBP4) (human, UniProt P22692 22-258); assay: AC-MS, mAb on M-PVA beads, QC2 serum, round 1
T3 construct: also called IBP4 protein; IGFBP4
T3 sequence: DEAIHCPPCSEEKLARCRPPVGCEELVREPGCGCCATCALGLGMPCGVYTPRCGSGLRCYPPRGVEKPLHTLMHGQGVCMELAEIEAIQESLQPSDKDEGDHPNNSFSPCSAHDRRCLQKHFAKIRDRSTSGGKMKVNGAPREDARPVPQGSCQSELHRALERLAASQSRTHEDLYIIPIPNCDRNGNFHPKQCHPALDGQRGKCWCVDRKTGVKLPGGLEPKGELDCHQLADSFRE

[4] = target: T3, human insulin-like growth factor …; assay: SPR, format and IBP4 form not stated
[5] = target: T3, human insulin-like growth factor …; assay: AC-MS, mAb on M-PVA beads, pooled pregnant serum, peptide …
From the text: (§1) Anti-IBP4 antibody evaluation and selection. A total of 8 hybridoma clones (1H9.B6, 5C11.A7, 7G11.H4, 3D4.E9, 1G3.A3, 8G4.G11, 5F10.B2, and 3D8.A11) were produced according to the “additional production of anti-IBP4 antibodies” methods disclosed in Example 1 and screened by AC-MS, shown in Table 10 below. Monoclonal antibodies from these clones purified by protein-G affinity chromatography were covalently coupled to M-PVA magnetic beads and used in AC-MS experiments using pooled pregnant serum. The 5B3.G9 anti-IBP4 antibody clone was included in this analysis for comparison to the performance of the additional IBP4 antibodies, as shown and italicized in Table 10 below. Table 10 includes a summary of the additional antibodies Response Ratios and shared epitope binding results as determined by the competitive binding assays of Example 3.

[6] = target: T3, human insulin-like growth factor …; assay: AC-MS, mAb on M-PVA beads, QC2 serum, round 2 (beads reused)
[7] = target: T3, human insulin-like growth factor …; assay: AC-MS, mAb on M-PVA beads, QC2 serum, round 3 (beads reused)
[8] = target: T3, human insulin-like growth factor …; assay: AC-MS, mAb on M-PVA beads, pooled pregnant serum
From the text: as §1

[9] = target: T4, human sex hormone-binding globulin (SHBG) (human, UniProt P04278 30-402, O-linked glycan at T36 (native glycosylated form)); assay: SPR (Biacore T100), mAb captured on anti-mouse IgG, SHBG antigen injected, 1:1 fit, assay 2
T4 construct: Purified human SHBG, the SHBG antigen of the SPR runs, or SHBG in human serum; also called SHBG protein
T4 sequence: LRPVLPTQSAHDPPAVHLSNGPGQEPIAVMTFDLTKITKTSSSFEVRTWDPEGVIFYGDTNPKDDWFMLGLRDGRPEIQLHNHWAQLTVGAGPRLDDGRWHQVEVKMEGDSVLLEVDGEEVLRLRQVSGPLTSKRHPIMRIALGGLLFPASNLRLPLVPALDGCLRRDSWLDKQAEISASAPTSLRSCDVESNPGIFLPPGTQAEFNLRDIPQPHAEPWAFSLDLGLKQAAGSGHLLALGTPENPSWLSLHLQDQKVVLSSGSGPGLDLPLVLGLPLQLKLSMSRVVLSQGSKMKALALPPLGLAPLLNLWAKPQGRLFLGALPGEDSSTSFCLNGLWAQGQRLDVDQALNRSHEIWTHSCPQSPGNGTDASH
Procedure: (§2) Surface plasmon resonance experiments were performed on a BiacoreT100 to characterize the anti-SHBG and anti-IBP4 antibodies. Anti-mouse-IgG antibody was amine coupled to ˜500 RU on a C1 sensor chip using standard NHS/EDC activation. Test monoclonal antibodies were captured on the anti-mouse-IgG surfaces. The binding for the Sex Hormone Binding Globulin Antigen to anti-SHBG variant antibodies 4G10.F8 and 13C9.E5 were measured in a multi-cycle kinetic mode. Binding studies were performed in PBS buffer+0.05% P20+3 mM EDTA at 25 degrees C. SHBG was captured for 1 minute at 200 nM and regenerated with 1/100 H3PO4 after each cycle. SHBG was captured to similar densities on 2 different flow cells followed by an injection of the SHBG antigen in a 3-fold titration series up to 600 nM over the two surfaces. The responses were processed by subtracting the buffer injection to correct for drift. The data sets fit well to a simple 1:1 interaction model using SCRUBBER (Biologic Software Pty Ltd). The antigen concentration series was tested three times over each surface, giving rise to the kinetic an affinity parameters summarized below.

[10] = target: T4, human sex hormone-binding globulin …; assay: SPR (Biacore T100), mAb captured on anti-mouse IgG, SHBG antigen injected, 1:1 fit, assay 3
Procedure: as §2

[11] = target: T4, human sex hormone-binding globulin …; assay: SPR (Biacore T100), mAb captured on anti-mouse IgG, SHBG antigen injected, average of 3 assays
Procedure: as §2

[12] = target: T4, human sex hormone-binding globulin …; assay: SPR (Biacore T100), mAb captured on anti-mouse IgG, SHBG antigen injected, 1:1 fit, assay 1
Procedure: as §2

T1 sequence (VH, as listed by the source, chain 1 of 2): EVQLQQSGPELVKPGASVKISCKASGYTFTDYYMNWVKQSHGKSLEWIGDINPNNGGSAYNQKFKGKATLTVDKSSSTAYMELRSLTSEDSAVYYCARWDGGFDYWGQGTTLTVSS
T1 sequence (VL, as listed by the source, chain 2 of 2): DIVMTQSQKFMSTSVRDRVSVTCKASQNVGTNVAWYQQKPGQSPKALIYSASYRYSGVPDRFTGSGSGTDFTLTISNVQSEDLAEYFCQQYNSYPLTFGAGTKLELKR

B1: G10 (peptide)
peptide: LDGQRGKCWCVDRKT
binding result [1]: binds | binding result [2]: binds

B2: G9 (peptide)
peptide: PALDGQRGKCWCVDR
binding result [1]: binds | binding result [2]: binds

B3: G6 (peptide)
peptide: HPKQCHPALDGQRGK
binding result [1]: no binding (tested: about 7 ul of peptide) | binding result [2]: no binding (tested: about 7 ul of peptide)

B4: G8 (peptide)
peptide: CHPALDGQRGKCWCV
binding result [1]: binds | binding result [2]: binds

B6: anti-IBP4 antibody 3D4.E9 (antibody, mouse IgG2b, kappa, V domains shown)
VH: QVQLQQSGAELVRPGASVTLSCKASGYTFTDYEMHWVKQTPVHGLEWIGAIDPETGGAAYNQKFKGKAILTADKSSSTAYMELRSLTSEDSAVYYCTRARGSSSVYYFDYWGQGTTLTVSS
VL: DIVMTQSQKFMSTSVGDRVSVTCKASQNVGTNVAWYQQKPGQSPKALIYSTSYRYSGVPDRFTGSRSGTDFILTISNVQSEDLAEYFCQQYDSYPLTFGSGTKLEIKR
notes: Mouse hybridoma mAb raised against FL IBP4; also called IBP4-3D4.E9
ave RR [3]: 0.491 | Kd [4]: 8 nM | koff [4]: 0.00221 s⁻¹ | kon [4]: 270000 M⁻¹ s⁻¹ | t1/2 [4]: 5.23 min | Response Ratio [5]: 0.439 | ave RR [6]: 0.468 | ave RR [7]: 0.454 | ave IBP4 AC-MS RR [8]: 0.439

B8: H3 (peptide)
peptide: VDRKTGVKLPGGLEP
binding result [1]: no binding (tested: about 7 ul of peptide) | binding result [2]: no binding (tested: about 7 ul of peptide)

More lines, now with the values ahead:

ave RR [3]: 0.281 | Kd [4]: 22 nM | koff [4]: 0.0033 s⁻¹ | kon [4]: 160000 M⁻¹ s⁻¹ | t1/2 [4]: 3.5 min | Response Ratio [5]: 0.272 | ave RR [6]: 0.291 | ave RR [7]: 0.289 | ave IBP4 AC-MS RR [8]: 0.272
B5: anti-IBP4 antibody 1G3.A3 (antibody, mouse IgG1)
heavy: QVQLQQSGAELVRPGASVTLSCKASGYTFTDYEMHWVKQTPVHGLEWIGAIDPETGGIAYNQKFRGKAILTADKSSSTAYMELRSLTSEDSAVYYCARNYGISSYYAVDYWGQGTSVTVSSAKTTPPSVYPLAPGSAAQTNSMVTLGCLVKGYFPEPVTVTWNSGSLSSGVHTFPAVLQSDLYTLSSSVTVPSSTWPSQTVTCNVAHPASSTKVDKKIVPRDCGCKPCICTVPEVSSVFIFPPKPKDVLTITLTPKVTCVVVDISKDDPEVQFSWFVDDVEVHTAQTKPREEQINSTFRSVSELPIMHQDWLNGKEFKCRVNSAAFPAPIEKTISKTKGRPKAPQVYTIPPPKEQMAKDKVSLTCMITNFFPEDITVEWQWNGQPAENYKNTQPIMDTDGSYFVYSKLNVQKSNWEAGNTFTCSVLHEGLHNHHTEKSLSHSPGK
light: DIVMTQSQKFMSTTVGERVSITCKASQNVGTAVAWYQQKPGQSPKLLIYSASNRYTGVPDRFTGSGSGTDFTLTISNMQSEDLADYVSQQYSSYPLTFGAGTKLELK
notes: Mouse hybridoma mAb raised against FL IBP4; also called IBP4-1G3.A3

Kd [9]: 0.765 nM | koff [9]: 7.94e-05 s⁻¹ | kon [9]: 104000 M⁻¹ s⁻¹ | Kd [10]: 1.27 nM | koff [10]: 0.000119 s⁻¹ | kon [10]: 94100 M⁻¹ s⁻¹ | Kd [11]: 0.8 nM | koff [11]: 8e-05 s⁻¹ | kon [11]: 103000 M⁻¹ s⁻¹ | Kd [12]: 0.415 nM | koff [12]: 4.54e-05 s⁻¹ | kon [12]: 109000 M⁻¹ s⁻¹
B7: anti-SHBG antibody clone variant 13C9.E5 (antibody, mouse IgG1, kappa, V domains shown)
VH: QIQLQQPGAELVKPGASVKMSCKASGYTFTGYWMHWVKQRPGQGLEWIGVIDPSDTYTNYNQKFRGKATLTVDTSSSTAYMQLSGLTSEDSAVYYCTRDPLVTADFDYWGQGTTLTVSS
VL: DIVMTQSQKFMSTSVGDRVSVTCKASQNVDTNVAWYRQKPGQSPKALIYSASYRFSGVPDRFTGSGSGTDFTLTISNFQSEDLAEYFCQQYDSYPYTFGGGTKLEIKR
notes: Mouse monoclonal; variant form; also called SHBG (13C9.E5) Anti SHBG v2; SHBG #16

Reference: US20250101096A1 (SERA PROGNOSTICS, published 2025)
